Assay: yeast display, Sf9 membrane polyspecificity reagent, FACS + sequencing; frameworks hold sequencing errors
Outline: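 A synthetic nanobody library was expressed on Saccharomyces cerevisiae BJ5465 by galactose induction for 36–48 hours. The library was stained for 1 hour at 4 °C with 10% biotinylated, detergent-solubilized Sf9 membrane reagent and enriched with streptavidin microbeads before FACS. Low and high (top ~1%) gates were set on anti-HA fluorescence for expression and streptavidin fluorescence for reagent binding, and each polyreactivity label reflects the gate of origin.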

Sequence | polyreactivity (PSR sort gate)
EEELVESGGGIVQAGGSLRLSCAASGFIFGYNAMGWYRQAPGKERELVAAISSGDDTNYADSVKGRFTISRDNAKNTVYLQMNSLKPEDTAVYYCAAEVWTAFTLGSYWSVVDYDYWGQGTQVSVSS | low polyreactivity
EEELVESGGGLVQAGGSLRLSCAASGSTFLVYAMGWYRQAPGKERELVAVITSGGRTNYADSVKGRFTISRDNAKNTVYLQMNSLKPEDTAVYYCAVDGRSVPAWWPRFDYWGQGTQVTVSS | low polyreactivity
EVQLVESGGGLDQAGGSLRLICAASARTFIWNAMGWYRQEPGKERDLVAAITRNGDSTYYADSVKGRFTISRDNAKNTVYLQMNRLKPEDTAVYYCAAYSRVFVYRTVGNYGWMNYWGQGTQVTVSS | high polyreactivity
EVQLVESGGGLVQAGGSLRLSCAASGFIFGYNAMGWYRQAPGKERDLVAAISWSGGSTYYADSVKGRYTISRDNAKNTVYLQMNSLKPEDTAVYYCNRGYTAQVFTEFDYWGQGTLVTVSS | low polyreactivity
EVQLVESGGGLVQPGGSLRLSCAASGYIYSRYRMGWYRQAPGKGREFVAAISGGSSTNYADSVKGRFTISRDNSKNTVYLQMNSLRAEDTAVYYCAAYQIDSDPRVYWGQGTQVTVSS | low polyreactivity
EVQLVESGGGLVQPGGSLRLSCAASGYIYSRYRMGWYRQAPGKGREFVAAISGGSSTNYADSVKGRFTISRDNSKYTVYLQMNSLRADDTALYYCAAYKIDSDPRVYWGQGTQVTVSS | low polyreactivity
HAQLQESGGCLVQAGGSLRPSCAASGSIFRVSGMGWYRRAPGKERELVASIGFGSITYYADRVKGRFTISRDNAINTVYLQMNSLKPEDTAVYYCAVQVQDESWLDYWGQGTQVTVSC | low polyreactivity
HDQLVESGGGLVQAGGSLRLSCAASGSTFTINVMGWYRQAPGKERELVAAINGGGRTNYADSVKGRFTISRDNAKNTVYVQMNILKPEDTAVYYCAADGLSNVRQMDYWGQGTQVTVSS | low polyreactivity
HFQLVESGGGLVQAGGSLRLSCAASVFIILINVMGWSRQAPGKERELVAVITGGGTTNYADSVKGRFTISRDNANNTVYLQMNSLKPVDTAGYYCAVDAGAGDNDYWGQGTQVTVSS | low polyreactivity
HVHLVESGGGLVQAGGSLRLSCAASGRTFSRYAMGWYRQAPGKERELVAAITSGGSTNYADSVKGRFTISRDNAKNTVYLQKNSLKPEDTAVYYCAKRYFRSSRDGLGTTHPYDYWGQGTQVTVSS | high polyreactivity
HVHLVESGGGLVQAGGSLRLSCAASGRTFSTYAMGRYRQAPGKERELVATIRVSGSSTYYADSVKGRFTISRDNAKNTVYLQMNSLKQEDTEVYYCANRGLSRYYDYYYWGQGTQVTVSS | high polyreactivity
HVHLVESGGGLVQAGGSLRLSCASSGPTFGWNVMGWYRQAPGKERELVAAISGSGGSTYYADSVKGRFTISRDNAKNTVYSQMNSLKPEDTAVYYCAALYGPGREYDYWGQGTQVSVSS | low polyreactivity
HVHLVESGGGLVQAGGSLSLICAASGFIFRYYAMGWYRQAPGTEREVVAAITRGGSTYYADSVKGRFTISRDNAKNTVYLQMNSLKPVATAVYYCAARLYTQYYYWGQGTQVTVSS | high polyreactivity
HVLLVESGGGLVQAGGSLRLSFAATAFTFTYYTMGSYRQAPGKETELVAAITSSGGSTYYADSVMGRFTISRDNANNTVYLQMNSLKPEDTAVYYCAASRYSTRFGARVYWGQVTQVTVSS | high polyreactivity
HVQHVESGGGLVHAGGSLRLRCAASGSIFVYYAMGWYRQAPGKERELVAAISGGGGRKYYADSVKGRFTISRDNANNTVYLQMNSLKPDDTAVYYCAARRATYPGGFYSWGQGSQVTVSS | high polyreactivity
HVQIVESGGGLVQAGGSLRLSCAASGRIFVPYVMGWYRQAPGKERELVASISDSDTSTYYADSVKGRFTISRDNAKNTVYLQINSLKPEDTAVYYCNVDNWGQGTQVTVSS | low polyreactivity
HVQLEESGGGLDQAGGSLRLSCAASGITFVRNAMGWYRQAPGKERELVAVITSGGGTYYADSVKGRFTISRDNAKNTVYLQMNSLKPEDTAVYYWAGDIHVNGSGYWGKGTQVTVSS | low polyreactivity
HVQLQESGGGLMQAGGSQRLSCAASGSISYNSDMGWYRQAPGKEREFVAGIGYGTTTNYADSVKGRFTTSRDNAKNTVYLQMISMKPEDTEVYYCAAYQGNGYEFYYWGQGTQVTVRS | low polyreactivity
HVQLVDSGGGLVQAGGSLRLTCAASGNIFVPYAMGWYRQAPGKERELVAAINGGGSTNYADSLKGRFTISRDNAKNTVYLQMNSLKPEDTAVYYCAAVWYFLSLWYDYWGQGTQVTVSS | high polyreactivity
HVQLVDSSGRVVQARCSLRLSCAASGSTFHDNAMGWYRQAPGKDRDLEAAISSGGRTNYADSVKGRFTISRDNAKNTVYLQMNCLKPEDTAVYYCAASFRRWYFYARHDYGYWGLGTQVTVSS | low polyreactivity
HVQLVESAGGLVQAGGSLRLSCAASGFIFGYYAMGWYRQAPGKERELVAAINYNDDSTYYADSVKGRFTISRDNAKNTVYLQMNSLKPEDTAVYYCAVRRWDAGDYWGQGTQVTVSS | low polyreactivity
HVQLVESAGGLVQAGGSLRVSCAASGRTFVENAMGWYRQAPGKERELVAAITYRGGRTFYADSVKGRFTISLDNAKNTVYLQMNSLTPEETAVYYCNAVRRTGGHGDYWGHGTQVTVSS | high polyreactivity

Sequence | polyreactivity (PSR sort gate)
HVQLVESAGGLVQARGSLRLSCAASGSIFVTYAMGWYRQARGKERELVATITYSGGSTSYADSVKGRFTISRDNAKITVYLQMNSLKPDDTAVYFCAADLDSDFDYWGQGTQVTVSS | low polyreactivity
HVQLVESGGGLVQAGGSLRESCAASGRTFDDIAMGRYRQAPGKERELVAAINWSGASTYYADSVKGRFTISRDNAKNTVYLQMNSLKPEDTAVYYCAAVFWKSDSAYYEYGYWGQGTQVTVSS | low polyreactivity
HVQLVESGGGLVQAGGSLRFSCAASGFIFTNYAMGWYRQAPGTERELVAAISFSGSSTYYADSVKGRFTISRDNAKNTVYLQMNSLNPEDTAVYYCAVDGVPSSFSHDYWGQGTKVTVSS | low polyreactivity
HVQLVESGGGLVQAGGSLRISCAASGLIFVFYAMGWYRQAPGKERELVAAISTSGDRTYYADSVKGRFTISRDNAKNTVYLQMISLKPEDTAVYFCNARRLGYRSGHPGYYWGQGTQVTVSS | high polyreactivity
HVQLVESGGGLVQAGGSLRISCAASGRTFGHYAMGWNRQAPGKQRELVAVISGRNGDSTYYADSVKGRFTISRDNAKNTVYLQMNSLKPVYTAVYYCAAYKPWEYDYWGQGTEVTVSS | low polyreactivity
HVQLVESGGGLVQAGGSLRLRCAASGFTFYYNAMGWSRQAPGKERELVAAISTRGGNTYYADSVKGRFTISRDYAKNTVYLQRNSLKPEATAVYYCARIIRREGRYDYWGHGTQVTVSS | high polyreactivity
HVQLVESGGGLVQAGGSLRLSCAASGFTFANNAMGWYRQAPRKERELVAAISRSGGSTYYADSVKGRFTISRDNAKNTVYLQMNSLKPEDTAVYYCAVYNRPYKEYGYNYWGQGTQVTVSS | high polyreactivity
HVQLVESGGGLVQAGGSLRLSCAASGFTFVPYAMGWYRQAPGKERELVAAISSGGSTYYADSVKGRFTISRDNAKNTVYLQMNSLKPEDTAVYYCATTGWYRYGRKFYYWGQGTQVTVSS | high polyreactivity
HVQLVESGGGLVQAGGSLRLSCAASGGISIDNVMGWYRQATGKERELVAAISKSGGRTFYADSVKGRFTISRDNAKNTVYLQMNSLKPEDTAVYYCAKLYISKPYWYEHEYWGQGTQVTVSS | high polyreactivity
HVQLVESGGGLVQAGGSLRLSCAASGLTFAQYAMGWYRQAPGNERALVAAITGSGGSTYYADSVKGRFTISRDNAKNTVYLQLNSLKPEDTAVYYCNKLFYRWRIVDKYYYWGQGTQVTVSS | high polyreactivity
HVQLVESGGGLVQAGGSLRLSCAASGNIFVRYAMGWYRPAPGKERELVAAISSSGGRTYYADSVKGRFTISRDNAKNTVYLQMNSLKPEDTAVYYCATGRPSHNRYDYWGQGTQVTVSS | high polyreactivity
HVQLVESGGGLVQAGGSLRLSCAASGRIFGRNAMGWYRQAPGKERELVAAISSGGSTYYADSVKGRLTISRDNAKNTVYLQMNSLKPEDTAVYYFAVRGSYYNGGRAFESWGQGTQVTVSS | high polyreactivity
HVQLVESGGGLVQAGGSLRLSCAASGRIFPSNTMGWYRQAPGKERELVAAITRGDRTNYADSVKGRFTISRDNAKNTVYLQMNSLKPVDTAVYYCNARWGLPFGSGYYYWGQGTQVTVSS | low polyreactivity
HVQLVESGGGLVQAGGSLRLSCAASGRIFVDYVMGWYRQAPGKERELVARITWIGGNTYYADSVKGRFTISRDNAKNTVYFQMNCLKPEDTAVYYSNAGLTLLSRRHEGWYGDDYWGPGTQVTVSS | low polyreactivity
HVQLVESGGGLVQAGGSLRLSCAASGRIFVVYTMGWYRQAPGKERELVASIRGSGDSTNYADSVKGRFTLSRDNAKNTVYLQMNRLKPEDTAVYYCAADLPWSRRYSYRYGYWGQGTQVTVSS | low polyreactivity
HVQLVESGGGLVQAGGSLRLSCAASGRISIRNAMGWYRQAPGKERELGAAISRSGGSTYYADSVKGRFTISRDNAKNTVYIQMNSLKPEDTAVYYCAASFWSSGQWYDYWGQGTQVTVSS | high polyreactivity
HVQLVESGGGLVQAGGSLRLSCAASGRSLSDYAMGWYRQAPGKERELVATITSGDSTNYADSVKGRFTISRDNEKNTVYLQMNSLKPEDTEVYYCNADRFADYDYWGQGTQVTVSS | low polyreactivity
HVQLVESGGGLVQAGGSLRLSCAASGRTFLVYAMGWDRQAPGKERELVADITRSGGRTYYADSVKGRITISRDNAKNTVYLQINSLKPEDTAVYYCAARPYFVGPIEYDYWGQGTQVTVSS | high polyreactivity
HVQLVESGGGLVQAGGSLRLSCAASGRTFYFNTMGWYRQAPGKEMELVASISYGSNTNYADSVKGRFTISRDNAKNTVYLQMNSLKPEDTAVYFCAVRWVYRTSSWGARYGRYDYWGQGTQVTVSS | high polyreactivity
HVQLVESGGGLVQAGGSLRLSCAASGRTLYNNAMGWYRQAPGKERELVAAISSRGGSTRYADSVKGRFTISRDNAKNTVYLQMNSLKPEDTAVYSGAKRSINRDGDYWGQGTQVTVSS | high polyreactivity
HVQLVESGGGLVQAGGSLRLSCAASGSIFGHYAMGWYRQATGKERELVAAISSGGSTNYADSVKGRFTISRDNAKNTVYLQMNSLIPEDTAVYYCAPTSWWPPGYDYWGQGTQVTVSS | high polyreactivity

Source: the nanobody polyreactivity screen of Harvey et al. (2022)
